Measured values published in the supplement of paper PMC7877785.
± gives the uncertainty stated by the source.

Test: self-splicing fitness, log relative to wild type (ln ratio); higher = more splicing; Tetrahymena group I intron in knt gene, E. coli kanamycin selection, DiMSum; sequences stand for … in CUCUCU…GGAGGGAAAAGUUAUCAGGCAUGCACCUGGUAGCUAGUCUUUAAACCAAUAGAUUGCAUCGGUUUAAAAGGCAAGACCGUCAAAUUGCGGGAAAGGGGUCAACAGCCGUUCAGUACCAAGUCUCAGGGGAAACUUUGAGAUGGCCUUGCAAAGGGUAUGGUAAUAAGCUGACGGACAUGGUCCUAACCACGCAGCCAAGUCCUAAGUCAACAGAUCUUCUGUUGAUAUGGAUGCAGUUCACAGACUAAAUGUCGGUCGGGGAAGAUGUAUUCUUCUCAUAAGAUAUAGUCGGACCUCUCCUUAAUGGGAGCUAGCGGAUGAAGUGAUGCAACACUGGAGCCGCUGGGAACUAAUUUGUAUGCGAAAGUAUAUUGAUUAGUUUUGGAGUACUCGUGGUCG
Method in brief: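 Colonies from six replicate transformations of E. coli BL21(DE3) were pooled and amplicon-sequenced on an Illumina HiSeq 2500. The library placed an intron with all eight P1ex-region nucleotides randomised inside the knt kanamycin-resistance gene on pET-22b(+), and cells grew overnight at 37°C or 30°C on LB agar with or without 25 μg/mL kanamycin (plus 100 μg/mL carbenicillin, 50 μM IPTG, 0.2% rhamnose). Fitness is the DiMSum error-weighted combination of wild-type-normalised replicate fold changes, kanamycin versus none.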

Sequence | self-splicing fitness (ln) (30 °C) | self-splicing fitness (ln) (37 °C)
UCGGAGCAAUAUUACGGGCG | -1.37 ± 0.11 | -1.39 ± 0.18
UCGGAGCAAUAUUACGGUGA | -1.82 ± 0.27 | -1.05 ± 0.2
UCGGAGCAAUAUUACGUAAG | -2.77 ± 0.46 | -1.39 ± 0.42
UCGGAGCAAUAUUACGUCCU | -1.79 ± 0.17 | -0.83 ± 0.25
UCGGAGCAAUAUUACGUGGC |  | -1.95 ± 0.38
UCGGAGCAAUAUUACGUUCA |  | -2.2 ± 0.47
UCGGAGCAAUAUUACGUUGC | -2.44 ± 0.28 | -1.78 ± 0.42
UCGGAGCAAUAUUACGUUGU | -3.7 ± 0.22 | -1.93 ± 0.21
UCGUAGCAAUAUUACGAAGU | -3.58 ± 0.47 | -3.06 ± 0.35
UCGUAGCAAUAUUACGAAUU | -3.74 ± 0.29 | -3.57 ± 0.46
UCGUAGCAAUAUUACGAGAU | -4.2 ± 0.42 | -2.6 ± 0.39
UCGUAGCAAUAUUACGCCGA | -0.812 ± 0.31 | -2.03 ± 0.27
UCGUAGCAAUAUUACGCCUA | -0.658 ± 0.13 | 0.291 ± 0.11
UCGUAGCAAUAUUACGCGAU | -3.29 ± 0.24 | -2.36 ± 0.28
UCGUAGCAAUAUUACGGAGA | -2.51 ± 0.18 | -2.53 ± 0.27
UCGUAGCAAUAUUACGGAUA | -1.59 ± 0.34 | -1.02 ± 0.28
UCGUAGCAAUAUUACGGCCA | -0.72 ± 0.13 | -0.85 ± 0.16
UCGUAGCAAUAUUACGGGAG | -2.85 ± 0.2 | -3.28 ± 0.25
UCGUAGCAAUAUUACGGUGA | -1.57 ± 0.096 | -1.11 ± 0.1
UCGUAGCAAUAUUACGUAAC | -1.64 ± 0.34 | 
UCGUAGCAAUAUUACGUAAG | -2.62 ± 0.23 | -2.58 ± 0.32
UCGUAGCAAUAUUACGUCAU | -3.23 ± 0.35 | -2.17 ± 0.33
UCGUAGCAAUAUUACGUCGU | -4.26 ± 0.32 | -1.25 ± 0.18
UCGUAGCAAUAUUACGUGUG | -2.3 ± 0.1 | -1.41 ± 0.089
UCGUAGCAAUAUUACGUUUU | -2.58 ± 0.17 | -3.25 ± 0.23

Sequence | self-splicing fitness (ln) (30 °C) | self-splicing fitness (ln) (37 °C)
UCUAAGCAAUAUUACGAAAG | -2.88 ± 0.17 | -2.03 ± 0.18
UCUAAGCAAUAUUACGAAUC |  | -2.3 ± 0.45
UCUAAGCAAUAUUACGACGG | 0.00998 ± 0.076 | 0.286 ± 0.11
UCUAAGCAAUAUUACGAGAG | -3.21 ± 0.28 | -2.37 ± 0.21
UCUAAGCAAUAUUACGAGUG | -0.69 ± 0.092 | -0.683 ± 0.14
UCUAAGCAAUAUUACGAUAA | -1.46 ± 0.17 | -0.693 ± 0.2
UCUAAGCAAUAUUACGCAGG | -2.92 ± 0.23 | -2.36 ± 0.41
UCUAAGCAAUAUUACGCGAA | -3.03 ± 0.2 | -1.69 ± 0.16
UCUAAGCAAUAUUACGCUUU | -3.36 ± 0.21 | -2.94 ± 0.48
UCUAAGCAAUAUUACGGAAA | -2.93 ± 0.28 | -1.9 ± 0.27
UCUAAGCAAUAUUACGGCAC | -3.19 ± 0.44 | -2.85 ± 0.32
UCUAAGCAAUAUUACGGUCA | -1.31 ± 0.12 | -0.792 ± 0.12
UCUAAGCAAUAUUACGUAAA | -1.36 ± 0.097 | -0.985 ± 0.12
UCUAAGCAAUAUUACGUACA | -1.57 ± 0.13 | -1.13 ± 0.13
UCUAAGCAAUAUUACGUACG | -0.481 ± 0.11 | 0.49 ± 0.13
UCUAAGCAAUAUUACGUAUC | -4.13 ± 0.24 | -3.01 ± 0.21
UCUAAGCAAUAUUACGUGCC | -4.37 ± 0.39 | 
UCUAAGCAAUAUUACGUGUC | -4.21 ± 0.36 | 
UCUAAGCAAUAUUACGUUUG | -3.95 ± 0.3 | -2.4 ± 0.24
UCUCAGCAAUAUUACGAAAG | -1.9 ± 0.26 | -1.36 ± 0.21
UCUCAGCAAUAUUACGACAG | -2.76 ± 0.17 | -2.33 ± 0.17
UCUCAGCAAUAUUACGAGCC | -1.14 ± 0.19 | -1.68 ± 0.41
UCUCAGCAAUAUUACGAGUU | -2.32 ± 0.11 | -1.13 ± 0.099
UCUCAGCAAUAUUACGAUGA | -1.01 ± 0.12 | -0.477 ± 0.11
